Test results taken from patent US20240116985A1 (published 2024).
Starred links: 1 amine or outer side, 2 acyl side, 3 side chain; linkers in the order of their positions; H or OH if unused. Positions of bridges follow the written chain, without caps; N, C: chain ends. Non-standard residues stand in square brackets, D forms with d. Primed or numbered codes have the meaning given here. PyrS2″ = (S)-3-amino-1-((pent-4-en-1-yloxy)carbonyl)pyrrolidine-3-carboxylic acid (stapling residue), C=CCCCOC(=O)N1CC[C@@](N[*:1])(C(=O)[*:2])C1; B5(18) = 2,2-bis(4-pentenyl)glycine (2-amino-2-(pent-4-en-1-yl)hept-6-enoic acid), stitching residue, C=CCCCC(CCCC=C)(N[*:1])C(=O)[*:2]; TfeGA = (S)-2-amino-3-((carboxymethyl)(2,2,2-trifluoroethyl)amino)propanoic acid, O=C([C@H](CN(CC(=O)[*:3])CC(F)(F)F)N[*:1])[*:2]; B5(3) = 2,2-bis(4-pentenyl)glycine (stitching residue), C=CCCCC(CCCC=C)(N[*:1])C(=O)[*:2]; Phe(3-CF3) = N[C@@H](Cc1cccc(C(F)(F)F)c1)C(=O)O; Phe(3-OMe) = COc1cccc(C[C@H](N)C(=O)O)c1; Phe(2-Cl) = N[C@@H](Cc1ccccc1Cl)C(=O)O; 2Nal = N[C@@H](Cc1ccc2ccccc2c1)C(=O)O; Bta = N[C@@H](Cc1csc2ccccc12)C(=O)O; αAllylPro = C=CC[C@@]1(C(=O)O)CCCN1; tBuAla = CC(C)(C)C[C@H](N)C(=O)O; Cha = N[C@@H](CC1CCCCC1)C(=O)O

T1: B-cat-Halo (UniProt P35222 1-781)
T1 sequence (looked up): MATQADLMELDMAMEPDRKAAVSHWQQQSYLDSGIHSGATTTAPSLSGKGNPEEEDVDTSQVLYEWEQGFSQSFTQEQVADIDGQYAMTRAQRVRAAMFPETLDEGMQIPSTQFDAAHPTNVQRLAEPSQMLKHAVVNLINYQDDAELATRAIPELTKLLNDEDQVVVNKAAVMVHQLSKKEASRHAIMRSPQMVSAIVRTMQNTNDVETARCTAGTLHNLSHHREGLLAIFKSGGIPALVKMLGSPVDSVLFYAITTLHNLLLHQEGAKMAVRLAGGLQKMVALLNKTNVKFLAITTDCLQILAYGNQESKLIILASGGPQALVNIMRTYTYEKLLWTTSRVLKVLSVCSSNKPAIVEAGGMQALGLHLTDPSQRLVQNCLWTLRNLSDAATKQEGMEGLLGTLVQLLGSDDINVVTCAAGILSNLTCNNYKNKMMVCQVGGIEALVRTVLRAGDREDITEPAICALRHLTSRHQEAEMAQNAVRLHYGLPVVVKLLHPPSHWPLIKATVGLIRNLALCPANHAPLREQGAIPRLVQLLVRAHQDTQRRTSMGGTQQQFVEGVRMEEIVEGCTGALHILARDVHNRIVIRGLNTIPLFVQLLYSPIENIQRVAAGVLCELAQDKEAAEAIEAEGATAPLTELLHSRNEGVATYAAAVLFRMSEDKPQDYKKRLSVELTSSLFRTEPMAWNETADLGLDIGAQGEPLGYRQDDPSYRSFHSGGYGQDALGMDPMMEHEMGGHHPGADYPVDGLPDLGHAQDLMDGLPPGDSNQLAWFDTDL

T2: B-cat-Halo (UniProt P35222 1-781)
T2 sequence (looked up): T1 sequence (looked up)

B1: I-1120 (peptide)
peptide: Ac-[αAllylPro]D[Cha][B5(3)]DDAAFS[PyrS2″][Phe(2-Cl)][Bta]Q-NH2
modifications: staple 1-4, 4-11 (inferred); not fully specified (residue 9); printed as Ac-PL3-Asp-Cha-B5-Asp-Asp-Ala-Ala-4F3MeF-Ser-PyrS2-2C1F-BztA-Gln-NH2
B2: I-1123 (peptide)
peptide: Ac-[αAllylPro]D[tBuAla][B5(3)]DDAAFL[PyrS2″][Phe(2-Cl)][Bta]Q-NH2
modifications: staple 1-4, 4-11 (inferred); not fully specified (residue 9); printed as Ac-PL3-Asp-Npg-B5-Asp-Asp-Ala-Ala-4F3MeF-Leu-PyrS2-2C1F-BztA-Gln-NH2

Biological target: T1, B-cat-Halo
Assay: cell-based or functional assay

Ac-[αAllylPro]D[2Nal][B5(3)]DDAAFT[PyrS2″][2C1F][Bta]S-NH2 (staple 1-4, 4-11) [I-1115] and B1 cannot be ordered by “NanoBRET Abs IC50” value: 24.3 µM for the first, greater than 20 µM for the second.

First: Ac-[αAllylPro]D[Cha][B5(3)]DDAA[Phe(3-OMe)]S[PyrS2″]F[Bta]Q-NH2 (staple 1-4, 4-11 (inferred)) [I-1124]
Second: Ac-[αAllylPro]D[tBuAla][B5(3)]DDAA[Phe(3-CF3)]L[PyrS2″][Phe(2-Cl)][Bta]Q-NH2 (staple 1-4, 4-11 (inferred)) [I-1122]
The “NanoBRET Abs IC50” value of the first is higher: greater than 20 µM for the first, 12.3 µM for the second.

Going from Ac-[αAllylPro]D[Cha][B5(3)]DDAA[Phe(3-OMe)]S[PyrS2″][Phe(2-Cl)][Bta]Q-NH2 (staple 1-4, 4-11 (inferred)) [I-1118] to Ac-[αAllylPro]D[tBuAla][B5(3)]DDAA[Phe(3-OMe)]L[PyrS2″][Phe(2-Cl)][Bta]Q-NH2 (staple 1-4, 4-11 (inferred)) [I-1121], the “NanoBRET Abs IC50” value falls from 29.5 µM to 9.2 µM (3.2-fold).

Ac-[αAllylPro]D[Cha][B5(3)]DDAA[Phe(3-CF3)]S[PyrS2″][Phe(2-Cl)][Bta]Q-NH2 (staple 1-4, 4-11 (inferred)) [I-1119] and B2 are within 1.5-fold of each other in “NanoBRET Abs IC50” value: 19.4 µM for the first, 28.5 µM for the second.

Biological target: T2, B-cat-Halo
Assay: cell-based or functional assay

Ac-[αAllylPro]D[tBuAla][B5(18)]DNAAFT[PyrS2″][Phe(2-Cl)][Bta]S-NH2 (staple 1-4, 4-11) [I-1016] and Ac-[αAllylPro]D[tBuAla][B5(18)]DNAAFS[PyrS2″][Phe(2-Cl)][Bta]Q-NH2 (staple 1-4, 4-11) [I-1018] are within 1.5-fold of each other in “NanoBRET Abs IC50” value: 21.4 µM for the first, 25.8 µM for the second.

Going from Ac-[αAllylPro]D[tBuAla][B5(18)]D[TfeGA]KAFN[PyrS2″][Phe(2-Cl)][Bta]Q-NH2 (staple 1-4, 4-11) [I-1011] to Ac-[αAllylPro]D[tBuAla][B5(18)]DDAAFT[PyrS2″][Phe(2-Cl)][Bta]Q-NH2 (staple 1-4, 4-11) [I-1013], the “NanoBRET Abs IC50” value falls from 20.8 µM to 12.4 µM (1.7-fold).

Going from Ac-[αAllylPro]D[tBuAla][B5(18)]DNAAFT[PyrS2″][Phe(2-Cl)][Bta]Q-NH2 (staple 1-4, 4-11) [I-1014] to Ac-[αAllylPro]D[tBuAla][B5(18)]DDAAFS[PyrS2″][Phe(2-Cl)][Bta]Q-NH2 (staple 1-4, 4-11) [I-1017], the “NanoBRET Abs IC50” value falls from 14.3 µM to 8.9 µM (1.6-fold).
